Assay results from patent publication US20060062793A1, “Modified antibodies to prostate-specific membrane antigen and uses thereof” (priority 2004, published 2006).

Experiments:
[1] = test system: LNCap membrane preparation; assay: ELISA for binding of J415 deimmunized antibodies to LNCap membrane preparation; design: species or system human
Description: The J415 deimmunized antibodies (including various combinations of the deimmunized light chain and heavy chain subunits) were tested in an ELISA for binding to LNCap membrane preparation following the protocol as detailed above. ELISA plates were coated with LNCap membrane preparation and blocked with 5% BSA in phosphate buffered saline. Doubling dilutions of the J415 chimeric antibody (murine variable heavy and light chain regions fused to human constant heavy and light chain regions, respectively) and the deimmunized antibodies were applied. Detection was with horseradish peroxidase conjugated goat anti-human IgG and donkey anti-mouse for chimeric and mouse antibodies respectively. Color was developed with o-phenylene diamine substrate.

[2] = test system: PSMA-positive human LNCaP tumors; assay: Biodistribution of 111In labeled MAbs in nude mice bearing LNCaP tumors; type: in vivo, mouse
Description: Prior to use, the cells were trypsinized, counted and suspended in Matrigel (Collaborative Biomedical Products, Bedford, Mass.). Nu/Nu Balb C mice 8-10 weeks of age were inoculated, in the right and left flanks, with a suspension of 5×10^6 LNCaP cells in Matrigel (BD Biosciences, Bedford Mass.). After a period of 14-18 days, tumors (100-300 mg) had developed. The PSMA-negative DU145 and PC3 cells were implanted in nude mice in an identical manner.
The PSMA-positive and PSMA-negative tumor bearing mice were injected, via the tail vein, with 80 KBq of the iodinated MAb (400 MBq/mg) in 200 μL of PBS (pH 7.4, 0.2% BSA). Groups of animals (3-8/group) were sacrificed after 2, 4 or 6 days. The major organs and tumors were recovered. The tissue samples were weighed and counted, with appropriate standards in an automatic NaI(Tl) counter. These measured relative activity data (cpm) were background corrected and expressed as a percentage of the injected dose per gram (% ID/g). […] J415, J591 and 7E11 were labeled with ^111In (100 MBq/mg). 80 KBq of the ^111In labeled MAbs were injected in groups of animals. The % ID/g in various organs and tumor tissues was determined at 2-6 days post injection in a similar way as described for ^131I labeled MAbs.

LNCaP tumor sections = type: in vivo, mouse; conditions: 131I-labeled, 4 to 6 days after intravenous injection
Description: For several animals (n=20), harvested tumor samples were immediately cooled in liquid nitrogen and frozen in embedding medium (O.C.T. 4583, Sakura Finetec, Torrance Calif.). Twenty micron sections were cut and the tumor sections were either fixed with acetone and placed in direct contact with a sheet of photographic film (Biomax, Kodak, Rochester, N.Y.) or stained with hematoxin/eosin prior to exposure of the film. Tumors from control animals were collected and cut into 10 μm sections. […] Non-specific binding was determined in the presence of 100 nM J591 MAb. These sections were then washed 3 times with PBS (containing 0.2% BSA) and once with Tris buffer prior to being fixed with acetone and then exposed to photographic film.

Molecule	binding to LNCap cells as compared to the chimeric antibody [1]	kinetics of blood clearance [2]	tumor uptake over time [2]	tumor/blood ratios [2]	intra-tumoral distribution pattern (LNCaP tumor sections)
deJ415: deimmunized J415, heavy chain J415DIVH4 combined with light chain J415DIVK5; ATCC PTA-4174 (antibody, V domains shown) VH: EVKLEESGGGLVQPGGSMKISCVASGFTFSNYWMNWVRQSPEKGLEWVAEIRSQSNNFATHYAESVKGRVIISRDDSKSSVYLQMNSLRAEDTAVYYCTRRWNNFWGQGTTVTVSS VL: NIVMTQFPKSMSASAGERMTLTCKASENVGTYVSWYQQKPTQSPKMLIYGASNRFTGVPDRFSGSGSGTDFILTISSVQAEDLVDYYCGQSYTFPYTFGGGTKLEMK	equivalent binding				
J415: murine monoclonal antibody to human PSMA; hybridoma ATCC HB-12109 (antibody, V domains shown) VH: EVKLEESGGGLVQPGGSMKLSCVASGFTFSNYWMNWVRQSPEKGLEWVAEIRSQSNNFATHYAESVKGRVIISRDDSKSSVYLQMNNLRAEDTGIYYCTRRWNNFWGQGTTLTVSS VL: NIVMTQFPKSMSISVGERVTLTCKASENVGTYVSWYQQKPEQSPKMLIYGASNRFTGVPDRFTGSGSATDFILTISSVQTEDLVDYYCGQSYTFPYTFGGGTKLEMK		faster compared to 7E11	gradually increased with time and is quite similar to that of 7E11	significantly higher compared to that of 7E11	distinct preferential accumulation in areas of viable tumor
